Experimental findings from patent publication US20230212239A1, “INHIBITORS OF CBL AUTOINHIBITION AND RELATED METHODS” (THE HOSPITAL FOR SICK CHILDREN, priority 2020, published 2023) are described below.

One assay has as its target T1, CBL (47-357) S226E (UniProt P22681 47-357).
T1 construct: range 47-357; Point mutant within Duet-His-Δlinker-hSLAP2-CBL; also called S226E (CBL mutant)
T1 sequence (looked up): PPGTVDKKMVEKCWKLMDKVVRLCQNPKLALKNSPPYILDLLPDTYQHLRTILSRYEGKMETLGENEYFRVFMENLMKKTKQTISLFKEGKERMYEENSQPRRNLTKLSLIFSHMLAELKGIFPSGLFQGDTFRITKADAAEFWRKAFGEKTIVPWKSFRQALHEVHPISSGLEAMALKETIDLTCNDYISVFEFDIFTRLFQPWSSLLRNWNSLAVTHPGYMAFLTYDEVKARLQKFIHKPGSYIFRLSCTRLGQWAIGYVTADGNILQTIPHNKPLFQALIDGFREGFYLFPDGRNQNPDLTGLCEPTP
The assay is described as follows: Ni-NTA co-purification from Duet co-expression, high salt (0.5 M NaCl), Coomassie SDS-PAGE. The procedure: Cell pellets were resuspended in either high or low salt (as for high salt except 25 mM HEPEs pH 7.5, 150 mM NaCl) lysis buffer and purified as above on Ni-NTA agarose (Qiagen) with wash buffer (25 mM HEPEs pH 7.5, 150 mM NaCl, 2% glycerol, 20 mM imidazole, 10 mM βME). Bead slurry was mixed with SDS 2X loading buffer (125 mM Tris pH 6.8, 4% SDS, 20% glycerol, 0.715 M βME, bromophenol blue), boiled, and analyzed by 10 or 12.5% SDS-PAGE, stained with Coomassie blue.

The target in another assay is T2, CBL G306E (Homo sapiens, UniProt P22681, G306E).
T2 construct: Residues 25-357 and 2-436 of CBL were cloned in frame into pGEX4T-1; GST (N, cleaved yes); made in house; host or cells: E. coli BL-21
T2 sequence (P22681 2-436 G306E): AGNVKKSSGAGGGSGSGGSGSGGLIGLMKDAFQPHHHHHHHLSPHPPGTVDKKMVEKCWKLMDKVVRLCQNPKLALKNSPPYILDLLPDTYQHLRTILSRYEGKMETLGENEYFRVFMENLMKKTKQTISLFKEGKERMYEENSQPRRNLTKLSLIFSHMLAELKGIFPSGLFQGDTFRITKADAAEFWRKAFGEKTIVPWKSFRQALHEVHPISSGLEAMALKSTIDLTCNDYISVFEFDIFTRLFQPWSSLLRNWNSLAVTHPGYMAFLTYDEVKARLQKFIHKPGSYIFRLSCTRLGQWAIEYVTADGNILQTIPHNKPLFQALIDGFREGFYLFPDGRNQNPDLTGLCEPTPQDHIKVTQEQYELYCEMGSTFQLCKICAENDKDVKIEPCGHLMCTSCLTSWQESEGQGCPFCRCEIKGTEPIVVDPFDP
The assay is described as follows: In vitro ubiquitination assays with CBL mutant G306E. It is filed as biochemical. Particulars: CBL mutant that abolishes phospho-tyrosine binding. The method, then: Thus, we tested whether the ability of SLAP2 to promote CBL ubiquitination activity is influenced by canonical TKBD-phospho-tyrosine interactions.
In vitro ubiquitination reactions were prepared with 20 pmol of CBL or pCBL and 60 pmol of hSLAP2 or phosphorylated hSLAP2 (pSLAP2) for both WT and mutants. Reagents were thawed and reactions prepared on ice. […]
Ubiquitination reactions were set up as above (25 µL total volume) in triplicate and diluted with reaction buffer after completion (1:40 for pCBL, 1:15 for all other reactions). […] Wells were washed four times with PBS-T and 25 µL of prepared Immobilon Western Chemiluminescent HRP Substrate (Millipore #P90719) added to each well immediately prior to the plate being read on a Synergy Neo2 Plate Reader (BioTek Instruments). […] Standard deviation of the reaction averages was calculated and used as a measure of error. Each reaction set was analyzed at least twice with fresh protein purifications.

B1: Trx-His(6)-Δlinker-hSLAP2 (human SLAP2 29-261) (other)
chain: EAERSKATAVALGSFPAGGPAELSLRLGEPLTIVSEDGDWWTVLSEVSGREYNIPSVHVAKVSHGWLYEGLSREKAEELLLLPGNPGGAFLIRESQTRRGSYSLSVRLSRPASWDRIRHYRIHCLDNGWLYISPRLTFPSLQALVDHYSELADDICCLLKEPCVLQRAGPLPGKDIPLPVTVQRTPLNWKELDSSLLFSEAATGEESLLSEGLRESLSFYISLNDEAVSLDDA
notes: also called Trx-His-SLAP2; SLAP2 WT; not shown: N-terminal thioredoxin (Trx)-His(6)-TEV-site tag and linker of the modified pET32a (Δlinker version)
With B1, the binding result with CBL (47-357) S226E is “no binding”.

B2: pSLAP2: tyrosine phosphorylated SLAP2 expressed in TKB1 cells (protein, UniProt Q9H6Q3 2-261, looked up)
Src-like-adapter 2: GSLPSRRKSLPSPSLSSSVQGQGPVTMEAERSKATAVALGSFPAGGPAELSLRLGEPLTIVSEDGDWWTVLSEVSGREYNIPSVHVAKVSHGWLYEGLSREKAEELLLLPGNPGGAFLIRESQTRRGSYSLSVRLSRPASWDRIRHYRIHCLDNGWLYISPRLTFPSLQALVDHYSELADDICCLLKEPCVLQRAGPLPGKDIPLPVTVQRTPLNWKELDSSLLFSEAATGEESLLSEGLRESLSFYISLNDEAVSLDDA
modifications: tyrosine phosphorylated
notes: tyrosine phosphorylated SLAP2 expressed in TKB1 cells
With B2, the “CBL G306E ubiquitination activity” value with CBL G306E is “stimulated CBL G306E ubiquitination activity”.
